According to US20090112150A1, “CAVITATION ENHANCED TREATMENT THROUGH LOCAL DELIVERY” (IMARX THERAPEUTICS, INC., priority 2004, published 2009):

Assay: Loading of thrombolytic drugs into microbubbles, particle sizing/counting on Accusizer 770
Format: physicochemical
Details: MX115 microbubbles
Method: MX115 was activated in the vial. Different concentrations of thrombolytic drugs, Streptokinase (Sigma, Milwaukee, Wis.) and t-PA (Genentech, South San Francisco, Calif.), were added to the vial and incubated with the microbubbles for 5 minutes before analyzing the mixtures using a Model 770 Accusizer (Particle Sizing Systems, Santa Barbara, Calif.). […] As much as 5 mg of the drug could be loaded into the MRX 115 microbubbles.

[1] = protein loading in microbubbles 0.1 mg, 5 minutes incubation
[2] = protein loading in microbubbles 1 mg, 5 minutes incubation
[3] = protein loading in microbubbles 5 mg, 5 minutes incubation
[4] = protein loading in microbubbles 0.010 mg, 5 minutes incubation

Row | Substance | Number of particles/mL [1] | Number wt mean [1] [μ] | Volume wt mean [1] [μ] | Number of particles/mL [2] | Number wt mean [2] [μ] | Volume wt mean [2] [μ] | Number of particles/mL [3] | Number wt mean [3] [μ] | Volume wt mean [3] [μ] | Number of particles/mL (After 24 hrs) | Number wt mean (After 24 hrs) [μ] | Volume wt mean (After 24 hrs) [μ] | Number of particles/mL [4] | Number wt mean [4] [μ] | Volume wt mean [4] [μ]
1 | Streptokinase | 1.1 × 10^9 particles/mL | 1.79 | 13.6 | 1.1 × 10^9 particles/mL | 1.87 | 17.1 | 0.5 × 10^9 particles/mL | 2.44 | 52.9 |  |  |  |  |  | 
2 | Tissue Plasminogen Activator [tPA] |  |  |  |  |  |  |  |  |  | 1.3 × 10^9 particles/mL | 2.20 | 24.4 | 1.1 × 10^9 particles/mL | 2.27 | 23.5
